Experimental data from IntAct's records for PubMed 39938803.

B1: Retinoblastoma-associated protein (Homo sapiens), P06400 (parent)
chain: MPPKTPRKTAATAAAAAAEPPAPPPPPPPEEDPEQDSGPEDLPLVRLEFEETEEPDFTALCQKLKIPDHVRERAWLTWEKVSSVDGVLGGYIQKKKELWGICIFIAAVDLDEMSFTFTELQKNIEISVHKFFNLLKEIDTSTKVDNAMSRLLKKYDVLFALFSKLERTCELIYLTQPSSSISTEINSALVLKVSWITFLLAKGEVLQMEDDLVISFQLMLCVLDYFIKLSPPMLLKEPYKTAVIPINGSPRTPRRGQNRSARIAKQLENDTRIIEVLCKEHECNIDEVKNVYFKNFIPFMNSLGLVTSNGLPEVENLSKRYEEIYLKNKDLDARLFLDHDKTLQTDSIDSFETQRTPRKSNLDEEVNVIPPHTPVRTVMNTIQQLMMILNSASDQPSENLISYFNNCTVNPKESILKRVKDIGYIFKEKFAKAVGQGCVEIGSQRYKLGVRLYYRVMESMLKSEEERLSIQNFSKLLNDNIFHMSLLACALEVVMATYSRSTSQNLDSGTDLSFPWILNVLNLKAFDFYKVIESFIKAEGNLTREMIKHLERCEHRIMESLAWLSDSPLFDLIKQSKDREGPTDHLESACPLNLPLQNNHTAADMYLSPVRSPKKKGSTTRVNSTANAETQATSAFQTQKPLKSTSLSLFYKKVYRLAYLRLNTLCERLLSEHPELEHIIWTLFQHTLQNEYELMRDRHLDQIMMCSMYGICKVKNIDLKFKIIVTAYKDLPHAVQETFKRVLIKEEEYDSIIVFYNSVFMQRLKTNILQYASTRPPTLSPIPHIPRSPYKFPSSPLRIPGGNIYISPLKSPYKISEGLPTPTKMTPRSRILVSIGESFGTSEKFQKINQMVCNSDRVLKRSAEGSNPPKPLKKLRFDIEGSDEADGSKHLPGESKFQQKLAEMTSTRTRMQKQKMNDSMDTSNKEEK

How the values were obtained:
e2f1_human E2F1, Q01094 [1] = variants of: B1; settings: with e2f1_human E2F1, Q01094
Sequence of e2f1_human E2F1, Q01094 (Q01094 whole entry): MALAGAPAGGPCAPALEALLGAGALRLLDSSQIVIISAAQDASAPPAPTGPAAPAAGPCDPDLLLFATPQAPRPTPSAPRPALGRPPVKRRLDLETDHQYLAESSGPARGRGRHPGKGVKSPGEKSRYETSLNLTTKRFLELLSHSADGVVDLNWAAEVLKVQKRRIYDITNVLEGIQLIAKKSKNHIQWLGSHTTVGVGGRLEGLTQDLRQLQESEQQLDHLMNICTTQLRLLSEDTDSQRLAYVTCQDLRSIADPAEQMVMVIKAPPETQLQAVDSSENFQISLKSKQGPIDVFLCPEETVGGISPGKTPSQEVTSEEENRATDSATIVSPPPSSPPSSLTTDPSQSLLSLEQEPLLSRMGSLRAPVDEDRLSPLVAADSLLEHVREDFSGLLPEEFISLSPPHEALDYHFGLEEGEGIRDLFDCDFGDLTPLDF

e2f1_human E2F1, Q01094 [2] = variants of: B1; settings: with e2f1_human E2F1, Q01094; remark: listed apart in the source
ve7_hpv16 E7, P03129 [3] = variants of: B1; settings: with ve7_hpv16 E7, P03129
Sequence of ve7_hpv16 E7, P03129 (P03129 whole entry): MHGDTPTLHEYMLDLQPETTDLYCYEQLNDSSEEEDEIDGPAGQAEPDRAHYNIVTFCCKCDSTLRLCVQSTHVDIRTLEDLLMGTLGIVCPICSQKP

ve7_hpv16 E7, P03129 [4] = variants of: B1; settings: with ve7_hpv16 E7, P03129; remark: listed apart in the source

Variant | effect of a mutation on the interaction (e2f1_human E2F1, Q01094 [1]) | effect of a mutation on the interaction (e2f1_human E2F1, Q01094 [2]) | effect of a mutation on the interaction (ve7_hpv16 E7, P03129 [3]) | effect of a mutation on the interaction (ve7_hpv16 E7, P03129 [4])
T738I | decreasing interaction strength | disrupting interaction strength | decreasing interaction strength | disrupting interaction strength
M704V | decreasing interaction strength | disrupting interaction strength | decreasing interaction strength | –
I703V | decreasing interaction strength | disrupting interaction strength | decreasing interaction strength | –
I703F | decreasing interaction strength | disrupting interaction strength | decreasing interaction strength | disrupting interaction strength
R741H | decreasing interaction strength | – | decreasing interaction strength | –
R741C | decreasing interaction strength | – | decreasing interaction strength | –
R741S | decreasing interaction strength | – | decreasing interaction strength | –
R763T | decreasing interaction strength | – | decreasing interaction strength | –
R621C | – | decreasing interaction strength | decreasing interaction strength | –
M761L | decreasing interaction strength | – | increasing interaction strength | –
S751Y | decreasing interaction strength | disrupting interaction strength | disrupting interaction strength | –
S751C | decreasing interaction strength | disrupting interaction strength | decreasing interaction strength | –
V754G | decreasing interaction strength | – | decreasing interaction strength | –
